This sample holds only a part of the variants without activity.
B1: TPR 5TU (parent)
chain: GGAUCUUCUCGAUCUAACAAAAAAGACAAAUCUGCCACAAAGCUUGAGAGCAUCUUCGGAUGCAGAGGCGGCAGCCUUCGGUGGCGCGAUAGCGCCAACGUUCUCAACUAUGACACGCAAAACGCGUGCUCCGUUGAAUGGAGUUUAUCAUG

Variants of: B1
Assay: polymerase ribozyme fitness, log enrichment relative to wild type (log ratio); higher = more active; in vitro selection for triplet polymerase activity
Method in brief: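 Each subunit of a heterodimeric triplet polymerase ribozyme was represented by a PCR-built, transcribed mutant library that underwent triplicate single-round in vitro selection with frozen incubation at −7 °C. Extended constructs were recovered by gel excision, streptavidin-bead capture and RT-PCR, and Illumina sequencing of input and output libraries kept genotypes with ≥10 input reads and ≥1 read per output. Fitness is the logarithm of genotype enrichment relative to wild-type enrichment, from inverse-variance-weighted replicate averages, with a logarithm base of 2.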

| Variant | polymerase ribozyme fitness (log ratio) |
| --- | --- |
| A49U C93U | -1.38 |
| A49U U53A G86A C87A A89G C114U | ≤ -4.2 |
| G50A G59A G133U | ≤ -4.2 |
| G50A U53A U56A C75U C116A U134G | ≤ -4.2 |
| A49U G88A | ≤ -4.2 |
| A49U G83A U145A | -1.1 |
| G50A C57A C76G C93G | ≤ -4.2 |
| G50A G70A | -3.76 |
| G50A C85G C93A C129G | ≤ -4.2 |
| G50C A66C A91U A106C A137C U148A | ≤ -4.2 |
| G50A C76U C96A A121G | -1.1 |
| G50A A60U C96U U127A | -3.79 |
| G50A G86A C131U | -1.93 |
| A49U G141A A147G | ≤ -4.2 |
| G50A C54U A91U C93U A107C C108A C132G A138U U148G | ≤ -4.2 |
| G50A U82C | -0.783 |
| G50C A122C G143A | -4.06 |
| A49U G58C A66G G80U C85A C87A C108G G128U C149U | ≤ -4.2 |
| G50A C96A | -2.68 |
| G50A C96U | -1.47 |
| G50A C96G | -1.55 |

| Variant | polymerase ribozyme fitness (log ratio) |
| --- | --- |
| G50A G68A C96G C99U G136A | ≤ -4.2 |
| G50A C95U C125U | -2.44 |
| A49U G136A G141A | -0.805 |
| G50A G58C | -1.06 |
| G50A A91U C99U C103G C108U A137C G141C | ≤ -4.2 |
| G50A C75U C76U C114G G152U | -4.02 |
| G50A C69U G84U A98U A122G | ≤ -4.2 |
| A49U C103G | ≤ -4.2 |
| G50A U53A U55A U56A G67C G92A G126U | ≤ -4.2 |
| G50A U90C C96G A115U | ≤ -4.2 |
| G50A A107U | -4.13 |
| G50A A106G C118U | -1.6 |
| G50A | -1.02 |
| G50C | -2.52 |
| A49U U53A A64G G84U U90C C96A A97G G124U G140A | ≤ -4.2 |
| G50C A52C C105A C125A A142C U146A | ≤ -4.2 |
| G50C A52C G86U C87A | ≤ -4.2 |
| G50A G83A A97G | -0.838 |
| G50C C51U C87U G152U | ≤ -4.2 |
| G50A G84A U101C G117C U146G | -0.884 |
| G50A G59U G71U A73C C95A C108G | ≤ -4.2 |

| Variant | polymerase ribozyme fitness (log ratio) |
| --- | --- |
| G50C A64C G80A A120C G128U | ≤ -4.2 |
| G50A G62A G117A | -1.7 |
| G50C A52C G58C | ≤ -4.2 |
| G50A A89U C99U | -2.94 |
| G50C A64C U82G C87G A106U A122C | ≤ -4.2 |
| G50A C76A G92A U101G G128U U130G | ≤ -4.2 |
| G50C A119U | -3.92 |
| A49U U53A G92U C116A | -1.33 |
| G50C A73G C87A | ≤ -4.2 |
| A49U U61A C87A G140C | ≤ -4.2 |
| G50A A52C A97G G100A C114G G133U | ≤ -4.2 |
| G50C A64U G100U U111C G136C | ≤ -4.2 |
| A49U G62C C123U | -2.38 |
| A49U U56G C85U G86U U102C | ≤ -4.2 |
| G50C A142U | -3.9 |
| G50A G59A C96U A122U A142G A147U | -3.67 |
| G50A C51A C114U U134C G136A U151G | ≤ -4.2 |
| G50A A64C C95G C114U | ≤ -4.2 |
| G50A C72U A98C C99A | ≤ -4.2 |
| A49U G59A A115U A119C | -3.36 |
| G50A A60C G62A C76U C96U G100U C108G | ≤ -4.2 |

| Variant | polymerase ribozyme fitness (log ratio) |
| --- | --- |
| G50A A52C G84U A122U G141U | -3.68 |
| G50C A52C | -2.71 |
| G50A C57U G74U C75G C87A A97C A150G | ≤ -4.2 |
| A49U G50C G65C A97U U101G C129G G143U | ≤ -4.2 |
| G50A C54U U55A A73G | ≤ -4.2 |
| G50A C57A A66C G81U G86C A97C | ≤ -4.2 |
| A49U U55G C103A U111C A138G G152A | ≤ -4.2 |
| G50A A66G | -3.75 |
| G50A C76G C93G U102A U135G A150G | ≤ -4.2 |
| G50A C93U | -3.07 |
| G50C A73G G84A | -4.1 |
| G50A G84U G141U | -3.31 |
| G50A G83C C93G A97C C132G A137G G140U | ≤ -4.2 |
| G50A C51U U55A C76A C105U C108G | ≤ -4.2 |
| G50A A52U U78C C116A C149G | ≤ -4.2 |
| G50A C76U C93U A98C | -3.32 |
| G50A C85U C96U C105U G141A | -1.94 |
| G50A G68C U77C U82G G92C | ≤ -4.2 |
| G50A U134A | -3.21 |
| A49U U101C C116U | -1.49 |
| G50A C87U | -1.74 |
